Biological target: ectodomain of APP^695 (amyloid precursor protein)
Experiment: SPR; ectodomain of APP^695 coupled to the sensor chip surface; purified SORLA ectodomains as analyte; neutral pH; data also analysed with EVILFIT

| SPR sensorgram peak (response units) [RU] | Substance |
| --- | --- |
| 1750 | soluble wildtype SORLA ectodomain (Sortilin-related receptor with A-type repeats), hexa-His-tagged (from UniProt Q92673 82-2137) (domain or fragment) |
| 1650 | soluble mutant SORLA^N1358S ectodomain, hexa-His-tagged (from UniProt Q92673 82-2137) (domain or fragment) |
